Experimental data taken from PMC3841738 (Genes & Development, 2013).

Biological target: the molecule itself
Assay: SAXS

B1: NtrC1 ATPase domain (Aquifex aeolicus) (domain or fragment)
chain: LRKENELLRREKDLKEEEYVFESPKMKEILEKIKKISCAECPVLITGESGVGKEVVARLIHKLSDRSKEPFVALNVASIPRDIFEAELFGYEKGAFTGAVSSKEGFFELADGGTLFLDEIGELSLEAQAKLLRVIESGKFYRLGGRKEIEVNVRILAATNRNIKELVKEGKFREDLYYRLGVIEIEIPPLRERKEDIIPLANHFLKKFSRKYAKEVEGFTKSAQELLLSYPWYGNVRELKNVIERAVLFSEGKFIDRGELSCLVNSK
  stoichiometry N: 7
